Experimental data reported in US20250027068.

Target: pooled human IgG

Row | Protein | Enzyme Activity Endpoint Assay: Fab′2 [ng/µL] | Enzyme Activity Endpoint Assay: Fc [ng/µL] | Enzyme Activity Endpoint Assay: IgG [ng/µL] | Enzyme Activity Endpoint Assay: scIgG [ng/µL]
1 | PRT-539 (protein) MANQEIRYSKNENPNVTIKWVHGIGEPTQAEKEKIEFYWYETNTTKFFNNRKVTHLGDSNQCWAKTASNMLHWWFEQNKENINKYIEKKNITGKINFNGEQMFDVKEGIDDNQEKEKSYIANTFRTKKAHNLSTKHKGDYIISGLAWYLYGLNNFKNAHGPTPVKKKPKFYGPALFKDVFNRGDGNTPIKEETDFKEYTKKEFEDILKEALDSKKAIGINIYGSNVGYGHAITLWGAAFDEDNNIIAIYVVDNNFKFENRIFPYGIWYEKEGRPYLFNYEINSFVKNRYVGEITTLDKGEAQWQETNLEHHHHHH | 0 | 0 | 1400 | 0
2 | PRT-601 (protein) MANQEIRYSEETPSTVTSVWTKGVTPPTDFIQNEDVLHAPYIANQGWYDITKTFNGKDDLLCGAATAGNMLHWWFDQNKEQIKNYLKKHPEKQKINFNGEQMFDVKEAIDTKNHQLDSALFEYFKDKAFPYLSTKHLGVFPDHVIDMFINGYRLSLTNHGPTPVKRGTKDPRGGIFDAVFTRGDQSKLLTSRHDFKEKNLNEISDLIKKELTEGKALGLSHTYANVRINHVINLWGADFNANGNLEAIYVTDSDSNASIGMKKYFVGVNSAGKVAISAKEIKGDNIGAQVLGLFTLSTGQDSWNQTNLEHHHHHH | 720 | 529 | 0 | 0
3 | PRT-286 (protein) MVTSVWTKGVTPPAKFTQGEDVFHAPYDANQGWYDITKTFNGKDDLLCGAATAGNMLHWWFDQNKEKIEAYLKKHPDKQKIMFGDQELLDVRKVINTKGDQTNSELFNYFRDKAFPNLSARRIGVMPDLVLDMFINGYYLNVYKTQTTDVNRTYQEKDRRGGIFDAVFTRGDQSKLLTSRHDFKEKNLKEISDLIKKELTEGKALGLSHTYANVRISHVINLWGADFDSNGNLKAIYVTDSDSNASIGMKKYFVGVNSSGKVAISAKEIKEDNIGAQVLGLFTLSTGQDSWNQTN | 650 | 352 | 0 | 0
4 | PRT-2 (protein) MANQEIRYSEVTPYHVTSVWTKGVTPPAKFTQGEDVFHAPYVANQGWYDITKTFNGKDDLLCGAATAGNMLHWWFDQNKEKIEAYLKKHPDKQKIMFGDQELLDVRKVINTKGDQTNSELFNYFRDKAFPGLSARRIGVMPDLVLDMFINGYYLNVYKTQTTDVNRTYQEKDRRGGIFDAVFTRGDQSKLLTSRHDFKEKNLKEISDLIKKELTEGKALGLSHTYANVRINHVINLWGADFDSNGNLKAIYVTDSDSNASIGMKKYFVGVNSAGKVAISAKEIKEDNIGAQVLGLFTLSTGQDSWNQTN | 47 | 94 | 21 | 0
5 | PRT-278 (protein) MVTSVWTKGVTPPTDFIYGEDVLHAPYKAGQGWYDITKLFNGKDNLLCGAATAGNMLHWWFDQNKEQIENYLKKHPEKQKIIFNNQELFDLKAAIDTKDSQLDSKLFDYFKEKAFPYLSTKHLGVFPDHVIDMFINGYRLSLTNHGPTPVKRGSKDKRGGIFDAVFTRGVQSKLLTNRHDLKNKTLKEISDLIKQELTEGKALGISHTYANVRINHVINLWGADFDAEGNLEAIYVTDSDTNPSIGMKKYFVGVNSSGKVAISAKEIEEDNIGAQVLGLFTLSTGQDIWNQTN | 547 | 315 | 0 | 0
6 | PRT-529 (protein) MANQEIRYSEETPKTITSVWTKGVTPPTDFIKNEDVLHAPYIANQGWYDITKTFNGKDDLLCGAATAGNMLHWWFDQNKEEIENYLKKHPEKQKINFNGEQMFDVKEAIDTKDSQTDSALFEYFKDKAFPNLSTKHLGVMPDLVLDMFINGYYLSLGKHGPTPVKRGTKDPRGGIFDAVFTRGDQTKLLTARHDFKEKTLNEISDLIKQELTEGKALALSHTYANVRINHVINLWGADFNSEGNLEAIYVTDSDSNASIGMKKYYVGVNAAGKVAISAKEIEGDNIGAQVLGLFTLSTGQDIWEQTNLEHHHHHH | 0 | 177 | 508 | 350
7 | PRT-530 (protein) MANQEIRYSEETPKTITSVWTKGVTPPTDFIQNEDVLHAPYIANQGWYDITKTFNGKDDLLCGAATAGNMLHWWFDQNKEEIENYLKKHPEKQKINFNGEQMFDVKEAIDTKDSQTDSALFEYFKDKAFPYLSTKHLGVMPDLVLDMFINGYYLSVGKHGPTPVKRGTKDPRGGIFDAVFTRGDQSKLLTARHDFKEKTLNEISDLIKQELTEGKALALSHTYANVRINHVINLWGADFNSEGNLEAIYVTDSDSNASIGMKKYYVGVNAAGKVAISAKEIEGDNIGAQVLGLFTLSTGQDIWEQTNLEHHHHHH | 87 | 225 | 74 | 687
8 | PRT-552 (protein) MANQEIRYSEETPKTITSVWTKGVTPPTDFIQNEDVLHAPYIANQGWYDITKTFNGKDDLLCGAATAGNMLHWWFDQNKEEIENYLKKHPEKQKINFNGEQMFDVKEAIDTKDSQTDSALFEYFKDKAFPYLSTKHLGVFPDHVIDMFINGYRLSLTNHGPTPVKRGTKDPRGGIFDAVFTRGDQSKLLTARHDFKEKTLNEISDLIKQELTEGKALGLSHTYANVRINHVINLWGADFNSEGNLEAIYVTDSDSNASIGMKKYYVGVNAAGKVAISAKEIEGDNIGAQVLGLFTLSTGQDIWNQTNLEHHHHHH | 439 | 294 | 45 | 264
9 | PRT-558 (protein) MANQEIRYSEETPSTITSIWTKGVTPPTQFIQNEDVLHAPYIANQGWYDITKTFNGKDDLLCGAATAGNMLHWWFDQNKTEIENYLTKHPEKQKINFNGEQMFDVKEAIDTKDSQTDSALFSYFKDKAFPYLSTKHLGVFPDHVIDMFINGYRLSLTNHGPTPVKRGTKDPRGGIFDAVFTRGDQTKLLTARHDFKEKTLNEISDLIKQELTEGKALGLSHTYANVRINHVINLWGADFNSEGNLEAIYVTDSDSNASIGMKKYYVGVNAAGKVAISAKEIEGDNIGAQVLGLFTLSTGQDIWQQTNLEHHHHHH | 700 | 281 | 0 | 0
10 | PRT-597 (protein) MANQEIRYSEETPSTITSVWTKGVTPPTDFIQNEDVLHAPYIANQGWYDITKTFNGKDDLLCGAATAGNMLHWWFDQNKEQIENYLKKHPEKQKINFNGEQMFDVKEAIDTKDSQTDSALFEYFKDKAFPYLSTKHLGVFPDHVIDMFINGYRLSLTNHGPTPVKRGTKDPRGGIFDAVFTRGDQSKLLTSRHDFKEKTLNEISDLIKQELTEGKALGLSHTYANVRINHVINLWGADFNANGNLEAIYVTDSDSNASIGMKKYYVGVNSAGKVAISAKEIEGDNIGAQVLGLFTLSTGQDIWNQTNLEHHHHHH | 603 | 315 | 0 | 0
11 | PRT-551 (protein) MANQEIRYSEETPSTITSVWTKGVTPPTDFIQNEDVLHAPYIANQGWYDITKTFNGKDDLLCGAATAGNMLHWWFDQNKEEIENYLKKHPEKQKINFNGEQMFDVKEAIDTKDSQTDSALFEYFKDKAFPYLSTKHLGVFPDHVIDMFINGYRLSLTNHGPTPVKRGTKDPRGGIFDAVFTRGDQSKLLTARHDFKEKTLNEISDLIKQELTEGKALGLSHTYANVRINHVINLWGADFNSEGNLEAIYVTDSDSNASIGMKKYYVGVNAAGKVAISAKEIEGDNIGAQVLGLFTLSTGQDIWNQTNLEHHHHHH | 444 | 217 | 0 | 0
12 | PRT-546 (protein) MANQEIRYSEETPKTITSVWTKGVTPPTDFIKNEDVLHAPYIANQGWYDITKTFNGKDDLLCGAATAGNMLHWWFDQNKEEIENYLKKHPEKQKINFNGEQMFDVKEAIDTKDSQTDSALFEYFKDKAFPYLSTKHLGVFPDHVIDMFINGYRLSLTNHGPTPVKRGTKDPRGGIFDAVFTRGDQSKLLTSRHDFKEKTLNEISDLIKQELTEGKALGLSHTYANVRINHVINLWGADFNSEGNLEAIYVTDSDSNASIGMKKYYVGVNSAGKVAISAKEIEGDNIGAQVLGLFTLSTGQDIWEQTNLEHHHHHH | 722 | 390 | 0 | 236
13 | PRT-40 (protein) MANQEIRYSEVTPYHVTSVWTKGVTPPANFTQGEDVFHAPYVANQGWYDITKTFNGKDDLLCGAATAGNMLHWWFDQNKDQIKRYLEEHPEKQKINFNGEQMFDVKEAIDTKNHQLDSKLFEYFKEKAFPYLSTKHLGVFPDHVLDMFINGYRLSLTNHGPTPVKEGSKDPRGGIFDAVFTRGDQSKLLTSRHDFKEKNLKEISDLIKKELTEGKALGLSHTYANVRINHVINLWGADFDSNGNLKAIYVTDSDSNASIGMKKYFVGVNSAGKVAISAKEIKEDNIGAQVLGLFTLSTGQDSWNQTN | 42 | 108 | 14 | 13
14 | PRT-579 (protein) MANQEIRYSKATPSHITSVWTKGVTPPENFIYNEDVLHAPYLPNQGWYDITKTFNGKDDLLCGAATAGNMLHWWFDQNKEQIERYLKEHPEKQKINFNGEQMFDVKEAIDTKDSQTNSKLFEYFKDKAFPYLSTKHLGVFPDHVIDMFINGYRLSLTNHGPTPVKEQNKDPRGGIFDAVFTRGDQSKLLTSRHDFKEKTLNEISQLIKQELTEGKALGLSHTYANVRINHVINLWGADFNAEGNLEAIYVTDSDSNASIGMKKYYVGVNSAGKVAISAKEIEGDNIGAQVLGLFTLSTGQDIWQQTNLEHHHHHH | 816 | 450 | 0 | 0
